Results published in the supplement of paper PMC9112550, “Optimization of the antimicrobial peptide Bac7 by deep mutational scanning” (BMC Biology, 2022).

System: Escherichia coli TOP10
Assay: shrunken log2 fold change of peptide-encoding DNA abundance (4.5 h post-induction vs induction); higher = less antimicrobial activity (less host growth inhibition)
Settings: time post-induction: 4.5 h; library: site-saturation at positions 5, 18, 19, 20
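Note: peptides expressed intracellularly from a pBAD plasmid library in pooled LB shake-flask culture, induced with 0.3% L-arabinose, DNA abundance read by NGS, three biological replicates, DESeq2 with apeglm shrinkage.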

Sequence	shrunken log2 fold change
RRIRMRPPRLPRPRPRPYGAPRP	-0.105
RRIRPRPPRLPRPRPRPMNFPRP	-0.165
RRIRARPPRLPRPRPRPAILPRP	-0.087
RRIRRRPPRLPRPRPRPAKLPRP	0.0542
RRIRRRPPRLPRPRPRPRINPRP	0.125
RRIRKRPPRLPRPRPRPAKSPRP	0.254
RRIRPRPPRLPRPRPRPSYIPRP	-0.458
RRIRERPPRLPRPRPRPGETPRP	0.0954
RRIRTRPPRLPRPRPRPGAAPRP	0.509
RRIRMRPPRLPRPRPRPTMFPRP	0.137
RRIRWRPPRLPRPRPRPCCFPRP	-0.0922
RRIRWRPPRLPRPRPRPLPYPRP	-0.192
RRIRCRPPRLPRPRPRPRLLPRP	0.159
RRIRGRPPRLPRPRPRPQCPPRP	0.337
RRIRFRPPRLPRPRPRPFGCPRP	-0.0616
RRIRNRPPRLPRPRPRPQKQPRP	0.00917
RRIRVRPPRLPRPRPRPDIPPRP	-0.263
RRIRLRPPRLPRPRPRPACGPRP	0.412
RRIRPRPPRLPRPRPRPFMVPRP	-0.478
RRIRHRPPRLPRPRPRPIDFPRP	0.0271
RRIRLRPPRLPRPRPRPAGSPRP	0.268
RRIRKRPPRLPRPRPRPNWEPRP	0.0515
RRIRKRPPRLPRPRPRPQIEPRP	0.0198

Sequence	shrunken log2 fold change
RRIRCRPPRLPRPRPRPPENPRP	0.2
RRIRLRPPRLPRPRPRPVGDPRP	0.416
RRIRRRPPRLPRPRPRPMVKPRP	0.0693
RRIRLRPPRLPRPRPRPDLRPRP	-0.0717
RRIRIRPPRLPRPRPRPDHNPRP	-0.919
RRIRTRPPRLPRPRPRPDDPPRP	-0.00805
RRIRSRPPRLPRPRPRPIYQPRP	-0.158
RRIRRRPPRLPRPRPRPYKEPRP	-0.463
RRIRFRPPRLPRPRPRPLGRPRP	0.109
RRIRPRPPRLPRPRPRPTHMPRP	0.255
RRIRDRPPRLPRPRPRPGCWPRP	1.03
RRIRMRPPRLPRPRPRPADEPRP	-0.0062
RRIRQRPPRLPRPRPRPLQAPRP	0.0365
RRIRPRPPRLPRPRPRPKSVPRP	-0.119
RRIRTRPPRLPRPRPRPTDIPRP	0.0221
RRIRQRPPRLPRPRPRPVMIPRP	-0.286
RRIRIRPPRLPRPRPRPEERPRP	0.0136
RRIRERPPRLPRPRPRPSMRPRP	0.353
RRIRIRPPRLPRPRPRPCRMPRP	-0.186
RRIRKRPPRLPRPRPRPYPNPRP	0.0382
RRIRVRPPRLPRPRPRPHIIPRP	-0.204
RRIRVRPPRLPRPRPRPMMYPRP	0.00519
RRIRPRPPRLPRPRPRPGPKPRP	0.394

Sequence	shrunken log2 fold change
RRIRSRPPRLPRPRPRPYIGPRP	-0.121
RRIRARPPRLPRPRPRPIVHPRP	-0.311
RRIRWRPPRLPRPRPRPGIGPRP	0.433
RRIRKRPPRLPRPRPRPIFMPRP	0.0293
RRIRKRPPRLPRPRPRPPIRPRP	-0.104
RRIRYRPPRLPRPRPRPSPAPRP	0.156
RRIRFRPPRLPRPRPRPWRQPRP	-0.103
RRIRMRPPRLPRPRPRPHKGPRP	0.034
RRIRLRPPRLPRPRPRPAHNPRP	0.255
RRIRMRPPRLPRPRPRPEPLPRP	0.277
RRIRIRPPRLPRPRPRPGAPPRP	0.416
RRIRPRPPRLPRPRPRPIDTPRP	-0.35
RRIRCRPPRLPRPRPRPTQRPRP	0.514
RRIRSRPPRLPRPRPRPQTQPRP	0.198
RRIRRRPPRLPRPRPRPYSKPRP	-0.129
RRIRMRPPRLPRPRPRPSMVPRP	0.0557
RRIRGRPPRLPRPRPRPCPHPRP	0.205
RRIRMRPPRLPRPRPRPLPIPRP	-0.0881
RRIRPRPPRLPRPRPRPDPSPRP	0.265
RRIRLRPPRLPRPRPRPEQWPRP	-0.00018
RRIRIRPPRLPRPRPRPVLEPRP	0.0298
RRIRYRPPRLPRPRPRPIAVPRP	-0.321
RRIRARPPRLPRPRPRPVRFPRP	0.828

Sequence	shrunken log2 fold change
RRIRARPPRLPRPRPRPNEGPRP	-0.175
RRIRDRPPRLPRPRPRPGRFPRP	0.315
RRIRYRPPRLPRPRPRPYKLPRP	-0.491
RRIRRRPPRLPRPRPRPNNIPRP	-0.556
RRIRVRPPRLPRPRPRPSIDPRP	-0.455
RRIRTRPPRLPRPRPRPCYQPRP	-0.335
RRIRWRPPRLPRPRPRPYMHPRP	-0.48
RRIRHRPPRLPRPRPRPSPWPRP	0.0405
RRIRNRPPRLPRPRPRPSYSPRP	-0.555
RRIRIRPPRLPRPRPRPFPCPRP	-0.0282
RRIRTRPPRLPRPRPRPAQPPRP	0.00354
RRIRSRPPRLPRPRPRPGWHPRP	0.234
RRIRDRPPRLPRPRPRPQLIPRP	0.0732
RRIRCRPPRLPRPRPRPTMMPRP	-0.0339
RRIRMRPPRLPRPRPRPWPSPRP	0.034
RRIRWRPPRLPRPRPRPPSGPRP	0.127
RRIRLRPPRLPRPRPRPETAPRP	0.325
RRIRGRPPRLPRPRPRPALEPRP	1.11
RRIRERPPRLPRPRPRPHKDPRP	0.144
RRIRKRPPRLPRPRPRPTFKPRP	0.0344
RRIRARPPRLPRPRPRPNNSPRP	-0.483
RRIRIRPPRLPRPRPRPMVYPRP	-0.136
